Measured values: the supplement of paper PMC7125110
± gives the standard error. For some assays here: This sample holds only a part of the variants without activity.

B1: glmS ribozyme (parent)
chain: AUAAAAGCGCCAGAACUACAGAAAUGUAGUUGACGAGGAGGAGGUUUAUCGAAUUUUCGGCGGAUGCCUCCAAA

Assays:
Conditions in all cases: with glucosamine-6-phosphate
[1] = variants of: B1; experiment: kcat; higher = faster cleavage; RNA array
Outline: (§1)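 Sequenced MiSeq chips were the platform: E. coli RNA polymerase transcribed barcoded ribozyme variants on them in situ, and a hybridised Cy3 probe tracked these at 37 °C. After glucosamine-6-phosphate (40 μM to 10 mM) in HEPES/KCl/Mg(OAc)2 buffer was flowed in, tiles were imaged over ~14 h. Signals normalised to baseline and to non-cleaving reference variants were reduced to per-tile medians and fit to one- or two-exponential decays to obtain kobs. kcat and KM were derived through weighted Michaelis–Menten fits across concentrations.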

[2] = variants of: B1; experiment: self-cleavage kobs at 640 uM GlcN6P; higher = faster cleavage; RNA array
Outline: as §1

[3] = variants of: B1; experiment: self-cleavage kobs at 2500 uM GlcN6P; higher = faster cleavage; RNA array
Outline: as §1

[4] = variants of: B1; experiment: self-cleavage kobs at 10000 uM GlcN6P; higher = faster cleavage; RNA array
Outline: as §1

[5] = variants of: B1; experiment: self-cleavage kobs at 40 uM GlcN6P; higher = faster cleavage; RNA array
Outline: as §1

[6] = variants of: B1; experiment: self-cleavage kobs at 160 uM GlcN6P; higher = faster cleavage; RNA array
Outline: as §1

[7] = variants of: B1; experiment: KM; higher = weaker cofactor use; RNA array
Outline: as §1

Row | Variant | kcat [1] [s⁻¹] | self-cleavage kobs at 640 uM GlcN6P [2] [s⁻¹] | self-cleavage kobs at 2500 uM GlcN6P [3] [s⁻¹] | self-cleavage kobs at 10000 uM GlcN6P [4] [s⁻¹] | self-cleavage kobs at 40 uM GlcN6P [5] [s⁻¹] | self-cleavage kobs at 160 uM GlcN6P [6] [s⁻¹] | KM [7] [µM]
1 | AUAAAAGCGCUAGAACUACAGAAAUGUAGUUGACGAGGAGGAGGUUUAUCGAAUUUUCGGCGGAUGCCUACAAA | 5.41e-05 ± 1e-05 | 8.46e-05 ± 1.3e-05 | 5.81e-05 ± 9.9e-06 | 4.63e-05 ± 6.2e-06 |  |  | 
2 | AUAAAAGCGCUAGAACUACAGAAAUGUAGUUGACGAGGAGGAGGUUUAUGGAAUUUUAGGCGGAUGCCUCCAAA | 0.000158 ± 1.6e-05 | 0.000189 ± 3e-05 | 0.000242 ± 0.00011 | 0.000135 ± 2.2e-05 | 0.000112 ± 3.6e-05 | 0.00015 ± 1.7e-05 | 
3 | AUAAAAGCGCUAUAACUACAGAAAUGUAGUUGACGAGGAGGAGGUUUAUCGAAUUUUCGGCGGAUGCCUCCAAA | 6.21e-05 ± 5.4e-06 |  | 4.88e-05 ± 9.5e-06 | 5.47e-05 ± 8.2e-06 |  |  | 1020 ± 420
4 | AUAAAAGCGCUAGAACUACAGAAAUGUAUUUGACGAGGAGGAGGUUUAUCGAAUUUUCGGCGGAUGCCUCCAAA | 0.000681 ± 0.00029 | 7.49e-05 ± 1.3e-05 | 0.000407 ± 6.3e-05 | 0.000463 ± 6.1e-05 |  | 5.37e-05 ± 1.3e-05 | 
5 | AUAAAAGCGCUAGAACUACAGAAAUGUAGUUUACGAGGAGGAGGUUUAUCGAAUUUUCGGCGGAUGCCUCCAAA | 0.000176 ± 8e-05 |  |  | 3.94e-05 ± 5.4e-06 |  |  | 
6 | AUAAAAGCGCUACAACUACAGAAAUGUAGUUGACGAGGAGGAGGUUUAUCGUAUUUUCGGCGGAUGCCUUCAAA | 1.58e-05 ± 5.8e-06 |  |  | < 1e-05 | < 1e-05 |  | 
7 | AUAAAAGCGCUAGAACUACAGAAAUGUAGUUGACGAGGAGGAGGUUUAUCGAAUUUUCGGCGGAUGCAUCGAAA | 5.97e-05 ± 2.3e-05 | 0.000101 ± 2.3e-05 |  |  |  |  | 
8 | AUAAAAGCGCUAGAACUACAGAAAUGUAGUUGACGAGGAGGAGGUUUAUCGAAUUUUCGGCGGAUGGCUCCAAA | 0.000216 ± 2.7e-05 | 0.000102 ± 1e-05 | 0.000218 ± 2.2e-05 | 0.000189 ± 1.7e-05 | 2.61e-05 ± 1.2e-05 | 4.28e-05 ± 9.2e-06 | 633 ± 220
9 | AUAAAAGCGCUAGAAGUACAGAAAUGUAGUUGACGAGGAGGAGGUUUAUCGAAUUUUCGGCGGAUGCCUCCAAA | 0.000546 ± 4.2e-05 | 0.000104 ± 1.9e-05 | 0.000258 ± 4.8e-05 | 0.000423 ± 5.7e-05 |  |  | 2850 ± 410
